Reference: the nanobody polyreactivity screen of Harvey et al. (2022)

Test: yeast display, Sf9 membrane polyspecificity reagent, FACS + sequencing; frameworks hold sequencing errors
Method in brief: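 Polyreactivity labels are assigned by the sorting gate from which each nanobody was recovered. The gates were low and high (top ~1%), set on anti-HA fluorescence for expression and streptavidin fluorescence for reagent binding. Before sorting, galactose-induced (36–48 hours) yeast display cells were stained for 1 hour at 4 °C with 10% biotinylated, detergent-solubilized Sf9 membrane reagent.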

Sequence	polyreactivity (PSR sort gate)
QVQLVESGGGLVQAGGSLRLTCAASGRIFVPYVMGWFRQAPGKERELVAAISSSGGSTYYADSVKGRFTISRDNAKNTVYLQMNSLKPEDTAVYYCAKPYYFHEEDHWGQGTQVTVSS	low polyreactivity
QVQLVESGGGLVQAGGSLRLSCAASGFIFSNNAMGWYRQAPGKERELVAAISKSGGGTSYADSVKGRFTISRDNAKNTVYLQMKSLNPEDSGVYYCAARFSQFRVDFWGQGTQVTVSS	high polyreactivity
QDQHVESGGGLVQAGGSLRLSCAASGLTFDQYAMGWYRQAPGKERELVAAISGSDSTYYADSVKGRFTISRDNAKNTVYLQMNSLKPEDTAVYYCAASGDYVNIITGERFDARLYDYWGQGTQVTVSS	low polyreactivity
QVQLQESGGGLVQAGGSRRLSCAASGSISNLIAKCWYRQAQGKEREFVAAIGPGANTNYADSVKGRFTISRDNAKNPVYLQMNSRTPEDTAVYYCAVDYYGEAVYHYWGQGTQVTVSS	high polyreactivity
QLQLVESGGGLVQAGGSLRLSCAASGFTIRRYAMGCYRQAPGKERELVAAITWSAGSTYYADSVKGRFTISRDNAKNTVYLQMNSLKPEDTAVYYCAARWTRWGADSGYYWGKGTQVTVSS	high polyreactivity
QVQLVESGGGLVQAGGSLRLSCAASGNIFGPNAMGWYRQAPGKESELVAAISISGSTYYADSVKGRFTISRDNAKNTVYLQRNSLNPEDTAVYYCAADYDSDYSWKYNYWGQGTQVTVSS	low polyreactivity
QVQLVESGGGLVQAGGSLRLSCAASGRIFWYNAMGWYRPAPGKERELVASITRGNNTYYADSVKGRFTISRDNAKTTVYLQMNSLKPEDTAVYYCAKRYIYRYYWGQGTQVTVSS	high polyreactivity
QVQLVESGGGLVQEGGSLRLSCADSGSTFASYAMGWNRQAPGKERELVAAITDSGGSTYYADSVKGRFTISRDNAKNTVYLQMNSLKPEVTAVYDCAAEDQESNAAGGYWGQGTQVTVSS	low polyreactivity
QVQLVESGGGLVQAGGSLRLSCAASGIIFPYYTMGWYRQAPGKERELVARITNGGRTYYADSVNGRFTISRDNAKNTVYLQMNSLKPEDTAVYYCNAGRYYIGGYWGQGTQVTVSS	high polyreactivity
QVQLVESGGGLVQAGGSLRLSCAASGSIFYPYAMGWSSKAPRKERELVARISSAGGTYYADSVKGRFTISRDNAKNTVYLQMNSLKPEDTAVYYCAAQARYRYYYWGQGTQVTVSS	high polyreactivity
QDQLVESGGGLVQAGGSLRLSCAASGRIFRLNAMGWSRQAPWKERELVAAITRGGNTYYADSVKGRFTISRDNAKNTVYLQMNSLKPEDTAVYYCAATSSRVSGYRYDYWGQGTQVTVSS	high polyreactivity
QVQLVESGGGLVQAGGSLRLSCAASGSTFPSNAMGWYRQAPGKERELVAAISRSGGSTYYADSVKGRFTISRDNAKNTVYLQMNSLKPEDTAVYYCAVQVRPNSGGTRIHRGGYDYWGQGTQVTVSS	low polyreactivity
QVQLVESGGGLVQAGGSLRLSCAASGRIFRYYAMGWYRQAPGKEREFVAAINSSGVNTYYADSVKGRFTISRDNAKNTVYLQMNSLKPEDTAVYYCAADWYQWGGRYYAPRYYYWGQGTQVTVSS	high polyreactivity
QVQLVESGGGLVQAGGSLRLSCAASGRTFSENAMGWYRQARGKERELVAAISGSGGRTYYADSVKGRFTISRDNAKNTVYLQMNSLKPEDTAVYYCAKVTRYGSTYDYWGQGTQVTVSS	high polyreactivity
QVQLVESGGGLVQAGGSLRLSCAASGSIFGVYTMGWYRQAPGKERELVAAIRGVGSTNYADSVKGRFTISRDNAKNTVYLQMNSLKPEDTAVYYCASRYAYGMWGQGTQVTVSS	low polyreactivity
QVQLVESGGGLLQAGGSLRLSCAASGFIFDGYAMGWYRQAPGKERELVAAISSVGSTYYADSVKGRFTISRDNAKKTVYLQMNSLKPEDTAVYYCAAVRFYTYNYWGQGTQVTVSS	low polyreactivity
QVQLVESGGGLVQAGGSLRLSCASGLTFYRYAMGWYRQAPGKERELVAAINVRGGSTYYADSVKGRFTISRDNAKNTVYLQMNSLKPEETAVYYCAAYYPGFSYRYDYWGQGTQVTVSS	low polyreactivity
QVQLVESGGGLVQAGGSLRLSCAASGRTFYPYAMGWYRPAPGKERELVAAIRWSGGSTYYADSVKGRFTISRDNAKNTVYLQMNSLKPEDTAVYYCNADWKSYRGPKFDYWGQGTQVTVSS	low polyreactivity
QVQLVESGGGLVQAGGSLRLSCAASGRTFLINAMGWYRQAPGKERELVAGINRNGGTTYYADSVKGRFTISRDNAKNTVYLQMNSLKPEDTAVYYCAKRYPSWFNYWGQGTQVTVSS	high polyreactivity
QVQLVESGGGLVQAGGSLRLSCAASGSTIYDNAMGWYRQATGKESELVAAITWSVGRTYYADSVKGRFTISRDNAKNTVYLQMNSMKPEDTAVYYCAARSQDRTYFQVFVSDTPYNYWGQGTQVTVSS	low polyreactivity
QVQLVESGGGLVQAGGSLRLSCAASGSIFYVYAMGWYRQAPGKERELVAAITNYADSVKGRFTISRDNAKNTVYLQMNSQKPPDTAVYYCAADWWRVEMDYWGQGTQVTVSS	low polyreactivity
QVQLVESGGGLVQAGGSLRVSCAASGSIFHFYTMGWYRQAPGKERELVAAISSTGSTNYADSVKGRFTISRDNAKNTVYLQMNSLKPEDTAVYYCAAVGTYLAGYQFDYWGQGTQVTVSS	low polyreactivity

Sequence	polyreactivity (PSR sort gate)
QVQLVESGGGLVQAGGRLRLSCAASGLIFDSYAMGWYRQAPGKERELVAAITYTGGSTYYADSVKGRFTISRDNAKNTVYLQMNSLKPEDTAVYYCAARSQSDRYGYWGQGTQVTVSS	high polyreactivity
QVQLVESGGGLVQAGGSLRLSCAASGSTFYAYAMGWYRQAPGKERELVAAIDSGGSTYYADSVKGRFTISRDNAKNTVYLQMNSLKPDDTAVYYCAVRHRYTRAYWGRDYWGQGTQVTVSS	low polyreactivity
QVQHVESGGGLVQAGGSLRLSCAASGRTFGLNAMGWYRQAPGKERELVAAISGSGGRTYYADSVKGRFTISRDNAKNTVYLQMNSLKPEDTAVYYCARVPSGQLEYDYWGQGTQVTVSS	high polyreactivity
QVQLVDSGGGLVQAGGSLRLSCAASGSTFGGNAMGWYRQAPGKERELVAAITGSGGRTFYADSVKGRFTISRDNAKNTVYLQMNSLNPEDTAVYYCAADSYIYSVNYWGQGTQLTVSS	low polyreactivity
QVQLVESGGGLFQAGGRLRLSCAASGSIFPPYAMGWYRQAPGKERELVAAINWSGGRTYYADSVKGRFTISRDHPKNTLYLHMNSLKPEDTEDYYGAADLRRYSGEYYYWGQRTQVTVSS	high polyreactivity
QVQLVESGGGLVQAGGSLRLSCAASGRIFLRNDMVWYRQAPGKERELVAGISSDGSTYYADSVKGRFTISRDNAKNTVYLQMNSVKREDTAVYDCAAERWGKPTVFQFWRPYDYWGLGTQVTVSS	low polyreactivity
QVQLVESGGGLVQAGGSLRLSCAASGSIFFPNAMGWYRQAPGKERELVAAISWSGDSTYADSVKGRFTISRDNAKNTVYLQMNSLKPEETAVYSCAAVYLWWSYEFDYWGQGTHVTVSS	low polyreactivity
QVQLVESVGGLVQAGGSLRLSCAASGSIFGVYAMGWYRQAPGKERELVATISRSGAITYYADSVKGRFTISRDNAKNTVYLQMNSLKPEDTAVYYCAADFFSREWGQGTQVTVSS	low polyreactivity
QVQLVESGGGLVQAGGSLRLSCAASGSTLGLNAMGWYRHAPRKEREFVAAISQGGTRTYYADSVKGRLTNSRDNAKNCVYLQMNSLKPEDTAVYYCAALRHRTRAASGGDYWGQGTQVNVSS	high polyreactivity
QVQLVESGGGLVQAGGSLRLSCAASGITFYHYAMGWYRQAPGKERELVAAISSDDNTNYADSVKGRFTISRDNAKNTVYLQMNSLKPEDTAVYYCAAAPWYFYDQYFNAISFGYYYWGQGTQVTVSS	high polyreactivity
QVQLVESGGGLVQAGGSLRFSCAASGGIFFRNAMVWYRQAPGKEREFVAVISSGGSTYYADSVKGRFTISRDNAKNTVYLQMNSLKPEDTAVYYCAARRKRPGYTVTLHYPYNYWGQGTQVTVSS	high polyreactivity
QVQLVESRGGLVQAGGSLRLSCAASGIIFYQYAMGWYRQAPGKERELVAAITRSGGSTYFADSVKGRFTISRDNAKNTVYLQMKSLKPEDTAVYYCAARPFHSGYEGYGYWGQGTQVTVSS	high polyreactivity
QVQLVESGGGLVQAGGSLRLSCAASGRTFYDNTMGWYRQAPGKERELVAAITRNGGSTYYADSVKGRFTISRDNAKNTVYLQMNTLKPEDTAVYYCNAELGILSGVAEGPTFREYDYWGQGTQVNVSS	low polyreactivity
QVQLVESGGGLVQAGGSLRLSCAASGFIFRYYAMGWYRQATGKEREFVAVISSTTGSTYYADSVKGRFTISRDNAKNTVYLQMNSLKPEDTAVYYCAAASRRRRPLKRMDYWGQGTQVTVSS	low polyreactivity
QVQLVESGGGLVQAGGSLRLSCAASGITFPKYAMGWYRQAPGKERELVAAITKSGGSTYYADSVKGRFTISRDNAKNTVYLQMNSLKPEDTAVYYCAARPRYGEYDYWGQGTQVTVSS	high polyreactivity
QVQLVESGGGLVQAGGSLRLSCAASGSIFYVYTMGWYRQAPGKERELVAAITVSGGRTYYADSVKGRFTISRDNAKNTVYLQLNSLKPEDTAVYYCAADTAWPYYIYWSYDYWGQGTQVTVSS	low polyreactivity
QVQLVESRGGLVQAGGSLLLRCAASGSTITRNAMGWYRQAPGKERELVAAITSGGGTNYADSVKGRFTISRDNAKNTVYLQMNSLKPEDTAVYYCADRYWRFYTKRGYWGQGTQVTVSS	high polyreactivity
QVQLVESGGGLVHAGGSLRLSCDASGLIFYGYAMGWYRQAPGKERQLVADITYSGGRTYYADSVKGRFSISRDNAKNTVYFQMHSLKAEDTAVYYCNARHRSHSNSQPGWKYVYWGQGTQVTVSS	low polyreactivity
QVQLVESGGGLVQAGGSLRLSCAASGRILSGYTMGGYRQAPGKERELVAAINWRGGTTYYADSVKGRFTISRDNAKHTVYLQMNSLKPEDTAVYYCDADYYYQAGFYYWGQGTQVTVSS	low polyreactivity
QVQLVESGGGLVQAGGSLRLSCAASGFIFYRNTKGWYRQAPGKEREFVAAIRWRGGSTYYADSVKGRFTISRDNAKNTVYLQMNSLNPEDTAVYYCNAPYKQDYDYWGQGTQVTVSS	high polyreactivity
QVQLVESGGGLVQAGGSLRLSCAASGLTFPFYTMGWYRQAPGKERELVAAISRRGGSTYYADSVKGRFTISRDNAKNTVYLQLNSLKPEDTAVYYCAADKYSWYDYWGQGTQVTVSS	low polyreactivity
